Reference: US20090281028A1
Where two headings read alike, the source gives them in different places. Ends that are not written are not given here.

Columns and labels:
Experiment in all cases: cell-based or functional assay
[1] = molecular target: human Kv1.3 voltage-gated potassium channel (human) (UniProt P22001)
[2] = molecular target: human Kv1.3 channel (human) (UniProt P22001)
[3] = molecular target: human Kv1.1 channel (human) (UniProt Q09470)
[4] = molecular target: human Kv1.1 voltage-gated potassium channel (human) (UniProt Q09470)
[5] = molecular target: human Kv1.3 channel (human) (UniProt P22001); remark: listed apart in the source

Chain of human Kv1.3 channel (human) (P22001 whole entry): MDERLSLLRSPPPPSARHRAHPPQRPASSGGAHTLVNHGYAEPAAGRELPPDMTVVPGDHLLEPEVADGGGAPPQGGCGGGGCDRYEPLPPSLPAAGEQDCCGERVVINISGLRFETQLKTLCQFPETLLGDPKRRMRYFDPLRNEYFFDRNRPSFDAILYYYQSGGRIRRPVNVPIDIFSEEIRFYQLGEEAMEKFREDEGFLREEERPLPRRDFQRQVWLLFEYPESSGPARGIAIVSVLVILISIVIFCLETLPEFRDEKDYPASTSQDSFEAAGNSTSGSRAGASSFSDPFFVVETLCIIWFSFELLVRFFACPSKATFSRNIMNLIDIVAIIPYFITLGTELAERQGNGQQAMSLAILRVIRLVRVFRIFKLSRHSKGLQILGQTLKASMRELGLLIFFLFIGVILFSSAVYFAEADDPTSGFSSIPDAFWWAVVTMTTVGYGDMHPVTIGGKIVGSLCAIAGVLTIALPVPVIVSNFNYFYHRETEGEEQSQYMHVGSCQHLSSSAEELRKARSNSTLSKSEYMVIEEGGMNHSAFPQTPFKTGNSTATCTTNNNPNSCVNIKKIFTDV
Chain of human Kv1.3 voltage-gated potassium channel (human) (P22001 whole entry): as above
Chain of human Kv1.1 channel (human) (Q09470 whole entry): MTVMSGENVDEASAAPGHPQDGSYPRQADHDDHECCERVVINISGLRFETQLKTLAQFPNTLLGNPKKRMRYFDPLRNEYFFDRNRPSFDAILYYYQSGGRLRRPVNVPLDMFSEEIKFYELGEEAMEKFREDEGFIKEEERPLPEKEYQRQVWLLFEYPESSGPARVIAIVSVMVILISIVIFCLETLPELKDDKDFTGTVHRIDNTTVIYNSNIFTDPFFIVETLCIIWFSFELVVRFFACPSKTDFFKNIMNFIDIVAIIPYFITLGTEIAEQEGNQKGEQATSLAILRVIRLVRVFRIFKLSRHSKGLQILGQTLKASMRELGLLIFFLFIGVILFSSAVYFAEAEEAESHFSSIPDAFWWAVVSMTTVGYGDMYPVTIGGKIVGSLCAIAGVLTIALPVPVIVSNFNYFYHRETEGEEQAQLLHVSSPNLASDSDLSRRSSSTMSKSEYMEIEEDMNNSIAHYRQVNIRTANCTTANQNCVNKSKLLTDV
Chain of human Kv1.1 voltage-gated potassium channel (human) (Q09470 whole entry): as above

Which results are given for 20k PEG-OSK1[Ala29, 1Nal34] (peptide)?
WB/IFNg (IC50, nM); human whole blood [1]: 0.081 nM; WB/IL-2 (IC50, nM); human whole blood [1]: 0.049 nM

Which results are given for 20k PEG-ShK (peptide)?
WB/IFNg (IC50, nM); human whole blood [1]: 0.065 nM; WB/IL-2 (IC50, nM); human whole blood [1]: 0.046 nM

How did the Kv1.3 IC50 by WCVC (nM), whole cell patch clamp, HEK293/Kv1.3 cells [2] turn out when E. coli-derived Fc-L-OSK1 (Fc fusion) was run?
The Kv1.3 IC50 by WCVC (nM), whole cell patch clamp, HEK293/Kv1.3 cells was 3.2 nM.

Which Kv1.3 IC50 by WCVC (nM), whole cell patch clamp, HEK293/Kv1.3 cells [2] does the source give for “E. coli-derived Fc-L-ShK[1-35] (Fc fusion)” here?
The Kv1.3 IC50 by WCVC (nM), whole cell patch clamp, HEK293/Kv1.3 cells was 1.4 nM.

What does the source list for “E. coli-derived Fc-L-ShK[2-35] (Fc fusion)”?
Kv1.3 IC50 by IWQ (nM), IonWorks planar patch clamp, CHO/Kv1.3 cells [2]: 2.8 nM; Kv1.3 IC50 by WCVC (nM), whole cell patch clamp, HEK293/Kv1.3 cells [2]: 1.3 nM

How did the Kv1.3 IC50 by IWQ (nM), IonWorks planar patch clamp, CHO/Kv1.3 cells [2] turn out when “E. coli-derived ShK[2-35]-L-Fc (Fc fusion)” was run?
Its Kv1.3 IC50 by IWQ (nM), IonWorks planar patch clamp, CHO/Kv1.3 cells is 4.9 nM.

Which Kv1.3 IC50 by IWQ (nM), IonWorks planar patch clamp, CHO/Kv1.3 cells [2] does the source give for “E. coli-derived Shk[1-35]-L-Fc (Fc fusion)” here?
Its Kv1.3 IC50 by IWQ (nM), IonWorks planar patch clamp, CHO/Kv1.3 cells is 2.4 nM.

How did the IC50 of block of the outward potassium current, whole cell patch clamp [2] turn out when “Fc-L5-ShK[2-35] (CHO-derived, bivalent dimeric) (Fc fusion)” was run?
The IC50 of block of the outward potassium current, whole cell patch clamp was 0.1 nM.

For Fc-L10-OSK1 (Fc fusion), which hKv1.1: IC50 [pM], block of current, whole cell patch clamp [3] is on record?
The hKv1.1: IC50 [pM], block of current, whole cell patch clamp was 41600 pM.

With “Fc-L10-OSK1 (stably expressed in CHO cells) (Fc fusion)” as the molecule, how does the fold loss of potency (IC50 of Kv1.3 current block) against synthetic OSK1 [2] read?
Its fold loss of potency (IC50 of Kv1.3 current block) against synthetic OSK1 is 5 fold.

“Fc-L10-ShK[2-35] (CHO-derived, bivalent dimeric) (Fc fusion)” was tested. Which IC50 of block of the outward potassium current, whole cell patch clamp [2] did it give?
The IC50 of block of the outward potassium current, whole cell patch clamp was 0.115 nM.

For “Fc-L25-ShK[2-35] (CHO-derived, bivalent dimeric) (Fc fusion)”, which IC50 of inhibition of human Kv1.3, whole cell patch clamp [2] is on record?
The IC50 of inhibition of human Kv1.3, whole cell patch clamp was 0.15 nM.

Which WB/IFNg (IC50, nM); human whole blood [1] does the source give for GGGGS-Osk1 (peptide) here?
The WB/IFNg (IC50, nM); human whole blood was 2.2 nM.

What about the WB/IL-2 (IC50, nM); human whole blood [1] of the same molecule?
The WB/IL-2 (IC50, nM); human whole blood was 1.36 nM.

Which Kv1.3 (IC50, pM); whole cell patch clamp ePhys [1] does the source give for “OSK1 (wild-type), toxin peptide of Orthochirus scrobiculosus scorpion venom” here?
The Kv1.3 (IC50, pM); whole cell patch clamp ePhys was 39 pM.

What about the Kv1.3 Selectivity (=Kv1.1/Kv.3 IC50) [1] of the same molecule?
The Kv1.3 Selectivity (=Kv1.1/Kv.3 IC50) was 5 fold.

What about the Kv1.1 (IC50, pM); whole cell patch clamp ePhys [4] of the same molecule?
The Kv1.1 (IC50, pM); whole cell patch clamp ePhys was 202 pM.

What does the source list for OSK1-K16, D20 (peptide)?
WB/IFNg (IC50, nM); human whole blood [1]: 1.32 nM; WB/IL-2 (IC50, nM); human whole blood [1]: 1.58 nM

Which peak IC50 of block of the outward potassium current, whole cell patch clamp [2] does the source give for “PEG-OSK1 (N-terminally 20 kDa PEGylated synthetic OSK1) (peptide)” here?
Its peak IC50 of block of the outward potassium current, whole cell patch clamp is 1.28 nM.

How did the hKv1.1: IC50 [pM], block of current, whole cell patch clamp [3] turn out when Synthetic OSK1 (peptide) was run?
The hKv1.1: IC50 [pM], block of current, whole cell patch clamp was 160 pM.

What about the hKv1.3: IC50 [pM], block of current, whole cell patch clamp [2] of the same molecule?
Its hKv1.3: IC50 [pM], block of current, whole cell patch clamp is 39 pM.

And the selectivity ratio hKv1.1/hKv1.3 (IC50) [2]?
The selectivity ratio hKv1.1/hKv1.3 (IC50) was 4 fold.

How did the IC50 of block of the outward potassium current, whole cell patch clamp [5] turn out when SCIDTIPKSRCTAFQCKHSMKYRLSFCRKTCGTC (not fully specified; ends and bridges not checked) [synthetic ShK[2-35]] was run?
Its IC50 of block of the outward potassium current, whole cell patch clamp is 0.049 nM.

How did the peak IC50 of block of the outward potassium current, whole cell patch clamp [5] turn out when RSCIDTIPKSRCTAFQCKHSMKYRLSFCRKTCGTC (not fully specified; ends and bridges not checked) [20K PEG-ShK[1-35]] was run?
Its peak IC50 of block of the outward potassium current, whole cell patch clamp is 0.169 nM.
